Test results as given in article PMC9482650, “Quantitative fragmentomics allow affinity mapping of interactomes” (Nature Communications, 2022).

Tests used:
Assay in all cases: holdup assay
Parameters in all cases: key: below the threshold = too weak to quantify, mostly under pKd 3.1 to 4
Conditions in all cases: plain residues with an end cap or a label only (N-terminal biotin on a linker: ado-ado)
GRID2IP_2, A4D2P6 = target: GRID2IP_2, A4D2P6
DLG5_1, Q8TDM6 = target: DLG5_1, Q8TDM6
GORASP2, Q9H8Y8 = target: GORASP2, Q9H8Y8
LIN7B, Q9HAP6 = target: T1, LIN7B, Q9HAP6
T1 sequence (Q9HAP6 88-185, limits assumed, looked up): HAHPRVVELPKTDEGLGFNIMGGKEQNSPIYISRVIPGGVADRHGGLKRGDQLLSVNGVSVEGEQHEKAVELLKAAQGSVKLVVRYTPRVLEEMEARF

LIN7A, O14910 = target: T2, LIN7A, O14910
T2 sequence (O14910 103-200, limits assumed, looked up): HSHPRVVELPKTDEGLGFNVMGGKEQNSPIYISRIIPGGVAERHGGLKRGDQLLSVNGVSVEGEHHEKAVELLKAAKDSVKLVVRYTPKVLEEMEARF

ARHGEF12, Q9NZN5-2 = target: ARHGEF12, Q9NZN5-2
ARHGEF12, Q9NZN5-2, sequence (Q9NZN5 other isoform, or with tags, fused parts or gaps): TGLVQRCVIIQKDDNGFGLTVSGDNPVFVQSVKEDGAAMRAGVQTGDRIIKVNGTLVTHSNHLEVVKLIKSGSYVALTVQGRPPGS

PDZRN3_1, Q9UPQ7 = target: T3, PDZRN3_1, Q9UPQ7
T3 sequence (Q9UPQ7 244-349, limits assumed, looked up): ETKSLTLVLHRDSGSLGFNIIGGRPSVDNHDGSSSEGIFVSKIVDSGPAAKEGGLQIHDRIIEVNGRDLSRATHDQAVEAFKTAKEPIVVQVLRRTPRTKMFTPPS

SNTG2, Q9NY99 = target: T4, SNTG2, Q9NY99
T4 sequence (Q9NY99 68-166, limits assumed, looked up): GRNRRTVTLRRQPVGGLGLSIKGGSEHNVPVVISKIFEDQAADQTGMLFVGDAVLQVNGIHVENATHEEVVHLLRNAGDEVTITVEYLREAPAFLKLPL

DLG3_2, Q92796 = target: T5, DLG3_2, Q92796
T5 sequence (Q92796 221-321, limits assumed, looked up): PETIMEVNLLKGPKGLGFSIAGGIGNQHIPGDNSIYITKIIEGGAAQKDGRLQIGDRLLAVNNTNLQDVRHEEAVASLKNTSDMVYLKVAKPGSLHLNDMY

MAGI1_1, Q96QZ7 = target: MAGI1_1, Q96QZ7
MAGI1_1, Q96QZ7, sequence (Q96QZ7 1-106): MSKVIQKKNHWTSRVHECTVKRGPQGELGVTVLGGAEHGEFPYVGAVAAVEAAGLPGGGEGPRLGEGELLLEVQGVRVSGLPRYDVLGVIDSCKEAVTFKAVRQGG

TX1BP3, O14907 = target: T6, TX1BP3, O14907
T6 sequence (O14907 10-122, limits assumed, looked up): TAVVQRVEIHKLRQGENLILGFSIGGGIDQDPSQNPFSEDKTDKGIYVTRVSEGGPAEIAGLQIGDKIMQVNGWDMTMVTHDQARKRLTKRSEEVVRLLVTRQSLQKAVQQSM

PICK1, Q9NRD5 = target: PICK1, Q9NRD5
PICK1, Q9NRD5, sequence (Q9NRD5 17-115): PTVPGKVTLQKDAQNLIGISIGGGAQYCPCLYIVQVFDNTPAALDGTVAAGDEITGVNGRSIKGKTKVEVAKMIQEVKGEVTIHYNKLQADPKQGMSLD

RADIL, Q96JH8 = target: T7, RADIL, Q96JH8
T7 sequence (Q96JH8 971-1071, limits assumed, looked up): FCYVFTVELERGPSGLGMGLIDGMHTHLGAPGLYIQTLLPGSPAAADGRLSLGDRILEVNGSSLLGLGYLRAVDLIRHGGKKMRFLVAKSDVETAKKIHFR

NHERF4_2, Q86UT5 = target: NHERF4_2, Q86UT5
NHERF4_2, Q86UT5, sequence (Q86UT5 220-308): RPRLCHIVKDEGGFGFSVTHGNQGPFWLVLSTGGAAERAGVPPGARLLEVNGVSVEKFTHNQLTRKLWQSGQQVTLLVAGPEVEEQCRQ

DLG3_1, Q92796 = target: T8, DLG3_1, Q92796
T8 sequence (Q92796 125-227, limits assumed, looked up): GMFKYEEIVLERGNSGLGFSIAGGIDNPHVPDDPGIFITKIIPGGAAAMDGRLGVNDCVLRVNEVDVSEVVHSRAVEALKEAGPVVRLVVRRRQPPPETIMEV

Inadl_1, Q8NI35 = target: Inadl_1, Q8NI35
Inadl_1, Q8NI35, sequence (Q8NI35 113-229): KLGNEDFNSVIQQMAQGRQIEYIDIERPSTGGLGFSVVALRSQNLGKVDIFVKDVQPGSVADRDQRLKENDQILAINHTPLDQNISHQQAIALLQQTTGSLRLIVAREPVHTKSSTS

MAST2, Q6P0Q8 = target: MAST2, Q6P0Q8
MAST2, Q6P0Q8, sequence (Q6P0Q8 1099-1202): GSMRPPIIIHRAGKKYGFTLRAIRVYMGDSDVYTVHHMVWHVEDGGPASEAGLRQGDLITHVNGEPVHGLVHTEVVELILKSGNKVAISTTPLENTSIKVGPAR

SNTA1, Q13424 = target: T9, SNTA1, Q13424
T9 sequence (Q13424 82-180, limits assumed, looked up): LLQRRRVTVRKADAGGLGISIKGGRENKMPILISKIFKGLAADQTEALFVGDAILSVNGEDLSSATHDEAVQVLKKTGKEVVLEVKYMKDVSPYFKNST

SNTG1, Q9NSN8 = target: T10, SNTG1, Q9NSN8
T10 sequence (Q9NSN8 52-150, limits assumed, looked up): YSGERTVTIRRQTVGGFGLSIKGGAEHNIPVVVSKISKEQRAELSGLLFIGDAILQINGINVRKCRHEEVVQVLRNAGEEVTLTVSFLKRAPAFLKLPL

TJP1_2, Q07157 = target: TJP1_2, Q07157
TJP1_2, Q07157, sequence (Q07157 181-274): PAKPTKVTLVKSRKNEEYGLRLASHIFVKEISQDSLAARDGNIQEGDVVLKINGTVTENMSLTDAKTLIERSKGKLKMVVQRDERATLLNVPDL

APBA2_1, Q99767 = target: T11, APBA2_1, Q99767
T11 sequence (Q99767 563-664, limits assumed, looked up): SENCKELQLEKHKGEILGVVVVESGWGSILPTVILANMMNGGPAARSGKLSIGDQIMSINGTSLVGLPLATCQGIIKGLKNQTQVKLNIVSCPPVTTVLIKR

FRMPD4, Q14CM0 = target: FRMPD4, Q14CM0
FRMPD4, Q14CM0, sequence (Q14CM0 67-160): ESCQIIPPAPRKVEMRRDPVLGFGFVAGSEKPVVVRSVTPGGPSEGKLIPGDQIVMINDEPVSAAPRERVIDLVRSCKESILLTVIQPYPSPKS

CASK, O14936 = target: CASK, O14936
CASK, O14936, sequence (O14936 487-570): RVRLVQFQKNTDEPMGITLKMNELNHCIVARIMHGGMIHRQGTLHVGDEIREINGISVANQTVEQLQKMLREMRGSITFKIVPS

TIAM2, Q8IVF5 = target: T12, TIAM2, Q8IVF5
T12 sequence (Q8IVF5 885-986, limits assumed, looked up): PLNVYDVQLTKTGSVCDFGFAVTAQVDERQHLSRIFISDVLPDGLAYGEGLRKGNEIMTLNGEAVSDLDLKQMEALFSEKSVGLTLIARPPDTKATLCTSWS

DLG5_1, Q8TDM6, sequence (Q8TDM6 617-713): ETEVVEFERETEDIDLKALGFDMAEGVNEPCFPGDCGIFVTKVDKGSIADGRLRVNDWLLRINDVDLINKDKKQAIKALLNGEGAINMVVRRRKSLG
GRID2IP_2, A4D2P6, sequence (A4D2P6 272-370): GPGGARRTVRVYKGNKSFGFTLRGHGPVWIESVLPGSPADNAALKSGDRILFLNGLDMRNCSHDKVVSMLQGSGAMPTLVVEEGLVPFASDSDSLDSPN

B1: KCNJ4, P48050 (peptide)
chain: NISYRRESAI
- pKd (GRID2IP_2, A4D2P6): 3.51
- pKd (DLG5_1, Q8TDM6): below the threshold
- pKd (GORASP2, Q9H8Y8): below the threshold
- pKd (LIN7B, Q9HAP6): 3.74
- pKd (LIN7A, O14910): below the threshold
- pKd (ARHGEF12, Q9NZN5-2): below the threshold
- pKd (PDZRN3_1, Q9UPQ7): 4.43
- pKd (SNTG2, Q9NY99): below the threshold
- pKd (DLG3_2, Q92796): 4.35
- pKd (MAGI1_1, Q96QZ7): below the threshold
- pKd (TX1BP3, O14907): 4.82
- pKd (PICK1, Q9NRD5): below the threshold
- pKd (RADIL, Q96JH8): below the threshold
- pKd (NHERF4_2, Q86UT5): below the threshold
- pKd (DLG3_1, Q92796): below the threshold
- pKd (Inadl_1, Q8NI35): below the threshold
- pKd (MAST2, Q6P0Q8): 4.72
- pKd (SNTA1, Q13424): below the threshold
- pKd (SNTG1, Q9NSN8): below the threshold
- pKd (TJP1_2, Q07157): below the threshold
- pKd (APBA2_1, Q99767): below the threshold
- pKd (FRMPD4, Q14CM0): below the threshold
- pKd (CASK, O14936): below the threshold
- pKd (TIAM2, Q8IVF5): 4.07

B2: KLHDC7A, Q5VTJ3 (peptide)
chain: PTPDLPQTRV
- pKd (GRID2IP_2, A4D2P6): 4.26
- pKd (DLG5_1, Q8TDM6): below the threshold
- pKd (GORASP2, Q9H8Y8): below the threshold
- pKd (LIN7B, Q9HAP6): 3.89
- pKd (LIN7A, O14910): below the threshold
- pKd (ARHGEF12, Q9NZN5-2): 4.13
- pKd (PDZRN3_1, Q9UPQ7): 3.53
- pKd (SNTG2, Q9NY99): 5.24
- pKd (DLG3_2, Q92796): 4
- pKd (MAGI1_1, Q96QZ7): below the threshold
- pKd (TX1BP3, O14907): below the threshold
- pKd (PICK1, Q9NRD5): 4.18
- pKd (RADIL, Q96JH8): below the threshold
- pKd (NHERF4_2, Q86UT5): below the threshold
- pKd (DLG3_1, Q92796): below the threshold
- pKd (Inadl_1, Q8NI35): below the threshold
- pKd (MAST2, Q6P0Q8): 5.2
- pKd (SNTA1, Q13424): 4.81
- pKd (SNTG1, Q9NSN8): 4.36
- pKd (TJP1_2, Q07157): below the threshold
- pKd (APBA2_1, Q99767): below the threshold
- pKd (FRMPD4, Q14CM0): 3.48
- pKd (CASK, O14936): below the threshold
- pKd (TIAM2, Q8IVF5): 3.86

B3: KCNJ18, B7U540 (peptide)
chain: QRPYRRGSEI
- pKd (GRID2IP_2, A4D2P6): 3.71
- pKd (DLG5_1, Q8TDM6): below the threshold
- pKd (GORASP2, Q9H8Y8): below the threshold
- pKd (LIN7B, Q9HAP6): 3.62
- pKd (LIN7A, O14910): below the threshold
- pKd (ARHGEF12, Q9NZN5-2): 3.74
- pKd (PDZRN3_1, Q9UPQ7): below the threshold
- pKd (SNTG2, Q9NY99): below the threshold
- pKd (DLG3_2, Q92796): 4.14
- pKd (MAGI1_1, Q96QZ7): below the threshold
- pKd (TX1BP3, O14907): below the threshold
- pKd (PICK1, Q9NRD5): below the threshold
- pKd (RADIL, Q96JH8): below the threshold
- pKd (NHERF4_2, Q86UT5): below the threshold
- pKd (DLG3_1, Q92796): below the threshold
- pKd (Inadl_1, Q8NI35): below the threshold
- pKd (MAST2, Q6P0Q8): 4.1
- pKd (SNTA1, Q13424): below the threshold
- pKd (SNTG1, Q9NSN8): below the threshold
- pKd (TJP1_2, Q07157): below the threshold
- pKd (APBA2_1, Q99767): below the threshold
- pKd (FRMPD4, Q14CM0): below the threshold
- pKd (CASK, O14936): below the threshold
- pKd (TIAM2, Q8IVF5): 4.11

B4: CACNG8, Q8WXS5 (peptide)
chain: NTLNRKTTPV
- pKd (GRID2IP_2, A4D2P6): 3.94
- pKd (DLG5_1, Q8TDM6): below the threshold
- pKd (GORASP2, Q9H8Y8): below the threshold
- pKd (LIN7B, Q9HAP6): below the threshold
- pKd (LIN7A, O14910): below the threshold
- pKd (ARHGEF12, Q9NZN5-2): 4.05
- pKd (PDZRN3_1, Q9UPQ7): 3.97
- pKd (SNTG2, Q9NY99): 3.75
- pKd (DLG3_2, Q92796): 4.59
- pKd (MAGI1_1, Q96QZ7): below the threshold
- pKd (TX1BP3, O14907): 5.01
- pKd (PICK1, Q9NRD5): 4.17
- pKd (RADIL, Q96JH8): below the threshold
- pKd (NHERF4_2, Q86UT5): 3.53
- pKd (DLG3_1, Q92796): 3.58
- pKd (Inadl_1, Q8NI35): below the threshold
- pKd (MAST2, Q6P0Q8): 4.83
- pKd (SNTA1, Q13424): 3.93
- pKd (SNTG1, Q9NSN8): below the threshold
- pKd (TJP1_2, Q07157): below the threshold
- pKd (APBA2_1, Q99767): below the threshold
- pKd (FRMPD4, Q14CM0): below the threshold
- pKd (CASK, O14936): below the threshold
- pKd (TIAM2, Q8IVF5): below the threshold

B5: FAM110D, Q8TAY7 (peptide)
chain: ARGPPRESEV
- pKd (GRID2IP_2, A4D2P6): below the threshold
- pKd (DLG5_1, Q8TDM6): below the threshold
- pKd (GORASP2, Q9H8Y8): below the threshold
- pKd (LIN7B, Q9HAP6): below the threshold
- pKd (LIN7A, O14910): below the threshold
- pKd (ARHGEF12, Q9NZN5-2): 3.82
- pKd (PDZRN3_1, Q9UPQ7): 5.07
- pKd (SNTG2, Q9NY99): 4.4
- pKd (DLG3_2, Q92796): 5.19
- pKd (MAGI1_1, Q96QZ7): below the threshold
- pKd (TX1BP3, O14907): 5.24
- pKd (PICK1, Q9NRD5): below the threshold
- pKd (RADIL, Q96JH8): below the threshold
- pKd (NHERF4_2, Q86UT5): below the threshold
- pKd (DLG3_1, Q92796): 4.3
- pKd (Inadl_1, Q8NI35): below the threshold
- pKd (MAST2, Q6P0Q8): 4.89
- pKd (SNTA1, Q13424): 5.27
- pKd (SNTG1, Q9NSN8): 5.23
- pKd (TJP1_2, Q07157): below the threshold
- pKd (APBA2_1, Q99767): below the threshold
- pKd (FRMPD4, Q14CM0): below the threshold
- pKd (CASK, O14936): below the threshold
- pKd (TIAM2, Q8IVF5): below the threshold

B6: CLDN4, O14493 (peptide)
chain: ARSAAASNYV
- pKd (GRID2IP_2, A4D2P6): 3.56
- pKd (DLG5_1, Q8TDM6): below the threshold
- pKd (GORASP2, Q9H8Y8): 4.01
- pKd (LIN7B, Q9HAP6): below the threshold
- pKd (LIN7A, O14910): below the threshold
- pKd (ARHGEF12, Q9NZN5-2): 3.73
- pKd (PDZRN3_1, Q9UPQ7): below the threshold
- pKd (SNTG2, Q9NY99): below the threshold
- pKd (DLG3_2, Q92796): below the threshold
- pKd (MAGI1_1, Q96QZ7): below the threshold
- pKd (TX1BP3, O14907): below the threshold
- pKd (PICK1, Q9NRD5): 4.15
- pKd (RADIL, Q96JH8): 4.5
- pKd (NHERF4_2, Q86UT5): below the threshold
- pKd (DLG3_1, Q92796): below the threshold
- pKd (Inadl_1, Q8NI35): below the threshold
- pKd (MAST2, Q6P0Q8): below the threshold
- pKd (SNTA1, Q13424): 3.63
- pKd (SNTG1, Q9NSN8): below the threshold
- pKd (TJP1_2, Q07157): below the threshold
- pKd (APBA2_1, Q99767): below the threshold
- pKd (FRMPD4, Q14CM0): below the threshold
- pKd (CASK, O14936): below the threshold
- pKd (TIAM2, Q8IVF5): below the threshold
